# In the supplement of paper PMC7125110:
# ± gives the standard error. Variants at the floor of the assay were thinned out.
# B1: glmS ribozyme (parent)
# chain: AUAAAAGCGCCAGAACUACAGAAAUGUAGUUGACGAGGAGGAGGUUUAUCGAAUUUUCGGCGGAUGCCUCCAAA
# How the values were obtained:
# Conditions in all cases: with glucosamine-6-phosphate
# glucosamine-6-phosphate [1] = variants of: B1; experiment: self-cleavage kobs at 160 uM GlcN6P; higher = faster cleavage; RNA array
# In short: (§1)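 Glucosamine-6-phosphate in HEPES/KCl/Mg(OAc)2 buffer, at 40 μM to 10 mM, was flowed over barcoded ribozyme variants transcribed in situ by E. coli RNA polymerase on sequenced MiSeq chips. Tracking was through a hybridised Cy3 probe at 37 °C. kobs, kcat and KM came from exponential decay fits and weighted Michaelis–Menten fits of normalised per-tile medians.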
# glucosamine-6-phosphate [2] = variants of: B1; experiment: self-cleavage kobs at 2500 uM GlcN6P; higher = faster cleavage; RNA array
# In short: as §1
# glucosamine-6-phosphate [3] = variants of: B1; experiment: self-cleavage kobs at 640 uM GlcN6P; higher = faster cleavage; RNA array
# In short: as §1
# glucosamine-6-phosphate [4] = variants of: B1; experiment: self-cleavage kobs at 10000 uM GlcN6P; higher = faster cleavage; RNA array
# In short: as §1
Variant,self-cleavage kobs at 160 uM GlcN6P (glucosamine-6-phosphate [1]) [s⁻¹],self-cleavage kobs at 2500 uM GlcN6P (glucosamine-6-phosphate [2]) [s⁻¹],self-cleavage kobs at 640 uM GlcN6P (glucosamine-6-phosphate [3]) [s⁻¹],self-cleavage kobs at 10000 uM GlcN6P (glucosamine-6-phosphate [4]) [s⁻¹]
G7U A12G U45C U46G C71U,< 1e-05,< 1e-05,,
G37A G44A U46C A48U C71U,< 1e-05,< 1e-05,< 1e-05,
A6G A53C G63A A64G,< 1e-05,,< 1e-05,
C8A A36C A42C G66C C67A,< 1e-05,< 1e-05,,
C34G G37A,< 1e-05,,< 1e-05,
A6G A12C G40A,< 1e-05,< 1e-05,< 1e-05,
G29U C58A C68A,,3.43e-05 ± 1.5e-05,0.000121 ± 3.2e-05,
C10A C34U C50G G62U,0.00045 ± 0.00013,8.51e-05 ± 2.1e-05,0.000144 ± 4.8e-05,
C8A A53U U55C C58U U69C,< 1e-05,,,
G41A G62C,< 1e-05,< 1e-05,< 1e-05,
A33C C70A,< 1e-05,,< 1e-05,< 1e-05
G43C G60C,< 1e-05,< 1e-05,< 1e-05,
A14U U30A A33U G51A,< 1e-05,,,
A12G U30G G43C U46G,,,< 1e-05,
U56A U69G,5.23e-05 ± 1e-05,0.000127 ± 4.2e-05,5.7e-05 ± 2e-05,4.58e-05 ± 8.9e-06
G35C G40A A42U,< 1e-05,< 1e-05,< 1e-05,
G9U G38A,< 1e-05,,< 1e-05,
A36U G41A U54G,< 1e-05,,< 1e-05,
G9A C58A,< 1e-05,< 1e-05,< 1e-05,
C16A G37C G59C,< 1e-05,,< 1e-05,
A33G G41A C70A,< 1e-05,,< 1e-05,< 1e-05
G7A A14C A36C A64U,< 1e-05,< 1e-05,< 1e-05,
A14G U31G G41C,< 1e-05,,< 1e-05,6.26e-05 ± 2.5e-05
G51C U65G,< 1e-05,< 1e-05,< 1e-05,
G7A A48U C71U,< 1e-05,< 1e-05,< 1e-05,
G32U G51U A53U G66U C71U,< 1e-05,< 1e-05,< 1e-05,
G43U G60U U69G,< 1e-05,,< 1e-05,

Variant,self-cleavage kobs at 160 uM GlcN6P (glucosamine-6-phosphate [1]) [s⁻¹],self-cleavage kobs at 2500 uM GlcN6P (glucosamine-6-phosphate [2]) [s⁻¹],self-cleavage kobs at 640 uM GlcN6P (glucosamine-6-phosphate [3]) [s⁻¹],self-cleavage kobs at 10000 uM GlcN6P (glucosamine-6-phosphate [4]) [s⁻¹]
G13U G37A A53C G60U C67G,< 1e-05,< 1e-05,< 1e-05,
G7U G40C G44U U47C G51U,< 1e-05,< 1e-05,,
G35C A36C,< 1e-05,,< 1e-05,< 1e-05
A33U G60A A64G,,< 1e-05,< 1e-05,
U45C C50G G51A A53U G60C,< 1e-05,< 1e-05,< 1e-05,
C16U A39C A48U,< 1e-05,,,
G13C A36U,< 1e-05,< 1e-05,< 1e-05,< 1e-05
U55C C61G G62C,,,< 1e-05,
G7A G13A G37C U46G,< 1e-05,< 1e-05,,
G44U U47C,< 1e-05,,,
G51C C58A,< 1e-05,< 1e-05,< 1e-05,
U46C U54A C61U,< 1e-05,< 1e-05,,
A36G A42U U56C,< 1e-05,< 1e-05,< 1e-05,
G37A A64G C71U,,,3.85e-05 ± 1.7e-05,
G7C U47A,< 1e-05,,< 1e-05,< 1e-05
G43A U46C U54A U56A U69C,,,< 1e-05,
C11G A36C U55A,< 1e-05,,,
G7U G37A A48C,< 1e-05,< 1e-05,< 1e-05,< 1e-05
C8A G59A,< 1e-05,< 1e-05,< 1e-05,< 1e-05
A39C A48G,< 1e-05,,,3.36e-05 ± 1.2e-05
G37A U46G A53G C61A C70A,< 1e-05,,,
A15U G43U U56A C68A,0.000115 ± 3.5e-05,0.00532 ± 0.0014,,
A12U C58A G60U,< 1e-05,,< 1e-05,
A36G G40U A52U U65C,,,< 1e-05,
A53G G60A G66C,< 1e-05,,,
A6U U56G U65A C67A,,0.000119 ± 2.9e-05,9.86e-05 ± 3e-05,
G9C A64C,< 1e-05,,< 1e-05,< 1e-05

Variant,self-cleavage kobs at 160 uM GlcN6P (glucosamine-6-phosphate [1]) [s⁻¹],self-cleavage kobs at 2500 uM GlcN6P (glucosamine-6-phosphate [2]) [s⁻¹],self-cleavage kobs at 640 uM GlcN6P (glucosamine-6-phosphate [3]) [s⁻¹],self-cleavage kobs at 10000 uM GlcN6P (glucosamine-6-phosphate [4]) [s⁻¹]
G32U G59C,< 1e-05,< 1e-05,< 1e-05,
G44C C61G,< 1e-05,,< 1e-05,< 1e-05
C11A C34U G60U C71A,< 1e-05,< 1e-05,,
A6U A12C A53U,< 1e-05,4.17e-05 ± 1.6e-05,3.14e-05 ± 1.3e-05,
C16A G66U C68A,,,0.0001 ± 3.2e-05,
C8U A33G G37U G43C U54A U56C C67U,< 1e-05,< 1e-05,< 1e-05,
A14U A15G G60U G66A,,,< 1e-05,
A36C G66C,< 1e-05,,< 1e-05,< 1e-05
C16G G38A,< 1e-05,,< 1e-05,< 1e-05
U31C U45A C67A,0.000102 ± 3e-05,0.000723 ± 0.00023,0.000203 ± 4.8e-05,
C11A G32C G41U A52U,,,< 1e-05,
C10A C34G A36G A39C U65A,< 1e-05,< 1e-05,,
G13A A15C G60U,,,< 1e-05,
C10U U31A U49G G62U C68U,< 1e-05,,,
C11U C70G,0.000313 ± 0.00014,0.000104 ± 8.7e-06,9e-05 ± 9.9e-06,6.56e-05 ± 5.5e-06
C8G A14U G66U,< 1e-05,,< 1e-05,
C10A U30G A48U,< 1e-05,< 1e-05,< 1e-05,< 1e-05
C8G A14G A15U G41C U47G U56A,< 1e-05,< 1e-05,< 1e-05,
G7C A14U C16G U30A U56A C67G,< 1e-05,,< 1e-05,
C16G G44C,< 1e-05,,< 1e-05,
G41A C67A,< 1e-05,,,4.21e-05 ± 8.7e-06
G43U U69G,< 1e-05,,< 1e-05,< 1e-05
A52C G59A,< 1e-05,< 1e-05,< 1e-05,< 1e-05
C11U A12U C71A,8.52e-05 ± 2.9e-05,0.000457 ± 8.7e-05,0.000232 ± 4.5e-05,
G40A G44U C61A,< 1e-05,,< 1e-05,< 1e-05
G7U G13C A39G,< 1e-05,< 1e-05,< 1e-05,
G13A A33C,< 1e-05,,< 1e-05,< 1e-05

Variant,self-cleavage kobs at 160 uM GlcN6P (glucosamine-6-phosphate [1]) [s⁻¹],self-cleavage kobs at 2500 uM GlcN6P (glucosamine-6-phosphate [2]) [s⁻¹],self-cleavage kobs at 640 uM GlcN6P (glucosamine-6-phosphate [3]) [s⁻¹],self-cleavage kobs at 10000 uM GlcN6P (glucosamine-6-phosphate [4]) [s⁻¹]
G37U C70U C71A,< 1e-05,,,
A36G U49A,< 1e-05,< 1e-05,< 1e-05,< 1e-05
G9U C16U G29A U45A U54C,< 1e-05,,,
G7C A36C U56A,,,< 1e-05,
A6C C8A C67A,< 1e-05,< 1e-05,< 1e-05,< 1e-05
G51C U54G,< 1e-05,,< 1e-05,
C16U A42U C67G,6.07e-05 ± 1.8e-05,0.000631 ± 0.00021,0.000203 ± 6.8e-05,
C50G C61U C71U,0.000138 ± 4.3e-05,9.98e-05 ± 2.4e-05,0.000232 ± 7.4e-05,0.000211 ± 5.4e-05
G13A C58G G59U,< 1e-05,,,
C11G C50U U57A G60A C67U,,,0.000609 ± 0.00017,
G37C G43C U47C,< 1e-05,< 1e-05,,
C8G C50A,< 1e-05,< 1e-05,,< 1e-05
G32U A42U,< 1e-05,,< 1e-05,
C10U U46C C70U,< 1e-05,,,
A12U G32A G37A U45A,< 1e-05,,,
C10A C50G U65G,0.000143 ± 2.6e-05,4.21e-05 ± 1.9e-05,0.000121 ± 4.2e-05,
U45C A64U,< 1e-05,,< 1e-05,
U56C C67G,< 1e-05,,< 1e-05,< 1e-05
G9C C11G C61G G63U,< 1e-05,< 1e-05,,
G7U G40U,< 1e-05,< 1e-05,< 1e-05,< 1e-05
G35A U49A,< 1e-05,,< 1e-05,< 1e-05
A36U G41A A42U G43U,< 1e-05,< 1e-05,< 1e-05,
G51A A52U,< 1e-05,,,
A14U U30C G43C G66C,< 1e-05,,,
